Experimental data published in patent publication US20130205416A1.

Legend:
Test in all cases: cell-based or functional assay
[1] = biological target: haemagglutinin of A/England/195/09 (H1N1), on PR8 recombinant virus (Influenza A virus A/England/195/09 (H1N1))
[2] = biological target: haemagglutinin of A/Victoria/3/75 (H3N2), on PR8 recombinant virus (Influenza A virus A/Victoria/3/75 (H3N2)), P03435
[3] = biological target: haemagglutinin of influenza virus A/Udorn/72 (H3N2) (Influenza A virus A/Udorn/72 H3N2)

**Q.** Which results are given for WLVFFVIFYFFRRRKK (modifications not checked) [FP3 peptide (…)]?
**A.** IC50 of inhibition of infectivity (plaque reduction assay) [1]: 0.066 to 0.1 µM; IC50 in plaque reduction assay [2]: 16 µM; IC50 in plaque reduction assay [3]: 16 µM
